± gives the uncertainty stated by the source.

A short description of this data set: amyloid nucleation score (Sup35N fusion, yeast selection) (log enrichment); library NNK3; higher = more nucleation; inactive = no reads after selection. An outline of the steps:
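Growth for 7 days at 30°C on medium lacking adenine and uracil followed a 24-hour induction with 100 μM copper sulfate of psi-negative yeast expressing peptides of 20 random codons fused to Sup35N. Input and output plasmid inserts were sequenced with Illumina, and sequences with under 100 input reads were excluded. Nucleation score is the DiMSum log enrichment of output over input reads, centred on the mode score of non-aggregating sequences.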
Turning to IRCRQNPGSHVIRYFCCRRS, the amyloid nucleation score result was “inactive”. As to IRDASWTKNLEFECLLFKPS, the amyloid nucleation score entry is “inactive”. As for IRFSKTLRVIVHGEGNGKLC, the entry is “inactive”; as for IRGIVV, “inactive”. As for IRHVHLSRYSTRTDGNNQLD, the entry is “inactive”; as for IRLLATF, “inactive”; as for IRLVMETLGNLGIADKSMRV, “inactive”. As for IRNERRQGSCGIIISRNCYV, the entry is “inactive”; as for IRPSHYIYLRTN, “inactive”; as for IRQVLCCESLRLGSYMQINT, “inactive”. Regarding IRRHYAYCYNISTITVIAEI, the amyloid nucleation score entry is “inactive”. To IRSAVVV belongs -0.53 ± 1.8; to IRSIM, “inactive”. To IRSSREFYMSVYRTEAWVLE belongs “inactive”; to IRSVKISSGYLLISYGDNNW, 0.687 ± 0.18; to IRTIIQKKMWACDHVFGSPA, “inactive”.

Take IRYVFPFDIAHYFYLTKRYG: the amyloid nucleation score result is “inactive”. To ISCSKLTR belongs “inactive”; to ISCYLSDPVYS, -0.493 ± 1; to ISFCYALCCNKMKRLLARCK, “inactive”. For the substance ISFSSES, the amyloid nucleation score result is “inactive”. As for ISHFTARFVSPPMQWLRTCF, the amyloid nucleation score entry was “inactive”. ISIFWSIEGSNYLHLILHQG: the amyloid nucleation score result was “inactive”. As for ISLFFRICY, the amyloid nucleation score amounted to 0.397 ± 0.27. As for ISLGVMCYYVPIPGCECTNI, the entry is “inactive”; as for ISMNLVLFMWFRRIGFLICL, “inactive”; as for ISNLRYRSWAYLVRSFCSVL, “inactive”.

ISRFCYSSINRRGFLGNFVF: the amyloid nucleation score result is “inactive”. Regarding ISSVQISRAFPQHRTRRN, the amyloid nucleation score entry was “inactive”. To ISTDSVIHTTMEHSGE belongs “inactive”.

In the case of ISTSLMDRRTKMLRQM, the amyloid nucleation score result was “inactive”.

ISVAWWGCSTAYRRCKD gave an amyloid nucleation score of 1.14 ± 0.12. As for ISVLERLGYMFVSRHMLLVW, the entry is “inactive”; as for ISVLVKWLVAERTSYWIMIP, “inactive”.

With ISVVFSGKNSLKEMRMKMAG, the amyloid nucleation score stood at 0.469 ± 0.21. The substance ISVYHVLTHKL came in with an amyloid nucleation score of 1.49 ± 0.12. In the case of ISYVKFY, the amyloid nucleation score entry is “inactive”. Take ITCANALLCDGSRFSM: the amyloid nucleation score came to 0.741 ± 0.16. To ITFNRSSSKNCSQKVKGRTL belongs “inactive”; to ITIMSDQETSHVWLVDRTLP, 0.298 ± 0.17; to ITPTFYVARTKPMLTGGCPK, “inactive”. Consider ITRDDTCSVYRLVK, for which the amyloid nucleation score result is “inactive”. ITRGTYRSPFSFNTRFESGS: the amyloid nucleation score result was “inactive”. On to ITSFFESHTVQVYAFYIRVF, for which the amyloid nucleation score result is “inactive”. Regarding ITVIGQLIALKQFSTLTRSI, the amyloid nucleation score entry was “inactive”.

As for ITVVQANMSVWSTARVDMLD, the amyloid nucleation score came to 1.12 ± 0.16. Consider ITWWLVIVAARSEGSCSPFQ, for which the amyloid nucleation score was determined as 0.158 ± 0.27. As for ITYKGLIWMSQGHVACRSRM, the figure is -0.008 ± 0.7; as for IVCCQYQNYLNGSPLNIVLI, “inactive”.

Regarding IVCHHRDYFLAYYYEMLHCR, the amyloid nucleation score entry was “inactive”. As for IVCISLCLAAEKQPSGCEFG, the figure is 2.01 ± 0.068; as for IVEDVGYLHLYRIQFGGVSE, “inactive”; as for IVHCWLMSGASVWTLQETPN, -0.105 ± 1.4. To IVNFACCVWSLYSSREFNML belongs 3.22 ± 0.07; to IVPAWLFGV, “inactive”.

As for IVQAFVSVLSY, the amyloid nucleation score entry was “inactive”.

For the substance IVRHVVYVSCGIQYCDHFWH, the amyloid nucleation score entry is “inactive”. As for IVSTSYNWDDACYDRTLQGG, the entry is “inactive”; as for IVSVQVVLLYQM, 1.12 ± 0.14; as for IVVEQLHDWDIPMKGTTFRS, “inactive”. As for IVVLWV, the figure is -0.341 ± 0.39.

Regarding IVVQSNHAYTLVRTDSLVWM, the amyloid nucleation score was determined as 1.17 ± 0.11. Regarding IVVRPR, the amyloid nucleation score is 1.24 ± 0.17.

In the case of IVYFPLILGAIIYWMSETHL, the amyloid nucleation score entry is “inactive”. To IWRDLGRLIQLFWNEIYHVN belongs “inactive”; to IWRLLGSWVSVTMDIYHWSS, “inactive”; to IWSNTYPSIRSLWMSFGVVI, “inactive”. As for IWVLSCRLISRTRFICDRRM, the figure is 0.057 ± 0.93.

Take IWWNIYCFTVTSSVD: the amyloid nucleation score turned out to be 2.21 ± 0.095.

On to IYGLLVDRRAVIFFEYMHLV, for which the amyloid nucleation score entry is “inactive”. As for IYGTANSKFSCIIYR, the figure is 2.09 ± 0.091; as for IYLASSLNRILISEQSILPG, “inactive”. To IYLDFNASWLACNKLICLRN belongs 1.01 ± 0.13.

In the case of IYLKYSSYRNSLIILAVD, the amyloid nucleation score entry was “inactive”. For IYLNFNKILLMILQIQLWGN, the amyloid nucleation score is -0.19 ± 0.64.

IYMSRKSLVMDVWQRHRDKE: the amyloid nucleation score result was “inactive”. For IYNTGHSSRYLRTPVFAWSE, the amyloid nucleation score result was “inactive”. As for IYPMLW, the figure is -0.428 ± 0.62; as for IYQWTEFCGRIFQSCRMVLC, “inactive”.

For the substance IYRGHVRQKELFCHRREIQW, the amyloid nucleation score entry was “inactive”. Consider IYSIVFFSRSLTVRVFGAHY, for which the amyloid nucleation score result was “inactive”.

Turning to IYSLYRCPFAVCLSSNWSCF, the amyloid nucleation score amounted to 1.78 ± 0.11.

With IYSRVSRLIH, the amyloid nucleation score result is “inactive”. For IYSVVGCWKPSSVSDMAGLL, the amyloid nucleation score result was “inactive”. IYSWTGLSTTLKFLGMSLLL registered an amyloid nucleation score of -0.218 ± 0.71. To IYTNWYEFRV belongs “inactive”; to IYVRAFRWFMNKVTSTAWTI, “inactive”. Substance IYVTIEFASIVCSCWESLDR registered an amyloid nucleation score of -0.091 ± 0.8.

For IYYHIETSSAVASWYWRCAT, the amyloid nucleation score result was “inactive”. As for IYYSRHEYSDCV, the entry is “inactive”; as for KAPRMVLLRSGIVMLAHSEN, “inactive”.

KASHWV: the amyloid nucleation score entry was “inactive”. As for KASLPNR, the entry is “inactive”; as for KATLRCCEPYVNDMVVANLK, “inactive”; as for KCAQEYGEVLS, -0.591 ± 0.8. To KCDEDCYAFDVYLSMGYDVS belongs “inactive”. For KCIQWTGRDAYFEICYKQLD, the amyloid nucleation score came out at 1.12 ± 0.11. To KCMAI belongs “inactive”.

For KCMCNLRSMFASCLYTCVVI, the amyloid nucleation score result is “inactive”.

With KDFIMHNILYMRRWAFTPLA, the amyloid nucleation score result was “inactive”. Regarding KDLRYTVFEVWDKYWPLTGL, the amyloid nucleation score entry is “inactive”. On to KDPEVQVRK, for which the amyloid nucleation score entry was “inactive”. As for KFGCSYTNYSITSPDNPSC, the entry is “inactive”; as for KFGWWLFDSVSDTNLWYRRS, “inactive”; as for KFKSRGRSTMLLVFNIVWRV, -0.476 ± 0.42. On to KFNVFPIHGALWTCSVSAYH, for which the amyloid nucleation score entry was “inactive”. To KFPWT belongs “inactive”; to KFRWVFYFGSAMEVREGSEF, -0.141 ± 0.45; to KFSCSDNPE, “inactive”. KFVLETFCHSKPRLVLVNHD: the amyloid nucleation score result is “inactive”. To KGGTLRRLTLSGTGTSQPSE belongs “inactive”.

As for KGHDAHVAVRVFTGGGLV, the amyloid nucleation score entry was “inactive”. To KGSHFFAIFGW belongs “inactive”; to KGYSRYQSVHRSNRELYNQA, -0.563 ± 0.64; to KHMSHRCILMLSPYSDRNIM, “inactive”.

Take KICSIVPLYIRGGHSLGSVV: the amyloid nucleation score entry is “inactive”. As for KIFRIYICDCELYHTNGMWA, the figure is 1.56 ± 0.1. Take KIFVSFNKSKLEVHPPLKVI: the amyloid nucleation score entry is “inactive”. KIGQSFSV: the amyloid nucleation score result is “inactive”. Regarding KIGSLVKECCGLPVYYALLK, the amyloid nucleation score entry was “inactive”. Consider KISMSRVVFDNSSTGTIEGQ, for which the amyloid nucleation score entry was “inactive”.

As for KIWYLSIYVYFYVYYLDGSL, the amyloid nucleation score entry is “inactive”. Regarding KKQGSWRKNITISRVCVVLG, the amyloid nucleation score result is “inactive”.

As for KKYFSVRWVTFWISRV, the amyloid nucleation score result is “inactive”.

In turn, KLFWMIVCGVLNLNSNNYGG displayed an amyloid nucleation score of 2.57 ± 0.084. KLGKESRSFLMTTRNVDRRF displayed an amyloid nucleation score of 1.43 ± 0.11. As to KLHPTYLCNQNPRELWLITY, the amyloid nucleation score result was “inactive”. Consider KLICKERYVVYSVILVLKEL, for which the amyloid nucleation score result is “inactive”. To KLILFLTRVFRSFQVSWRQF belongs “inactive”. In turn, KLMLHNEYMPGVQLLLNQYK displayed an amyloid nucleation score of 0.436 ± 0.46. KLSLMAVNLSWIYFCL yielded an amyloid nucleation score of 0.182 ± 0.27.

Values taken from the supplement of paper PMC12042874.
